Experimental data taken from the RNAGym collection of RNA variant scans (doi:10.1073/pnas.2313332121).

B1: TPR t1 (parent)
chain: GACCAAUCUGCCCUCAGAGCUCGAGAACAUCUUCGGAUGCAGAGGAGGCAGGCUUCGGUGGCGCGAUAGCGCCAACGUCCUCAACCUCCAAUGCAUCCCACCACAUGAUGAUGCCUGAAGAGCCUUGGUUUUUUG

Variants of: B1
Experiment: polymerase ribozyme fitness, log enrichment relative to wild type (log ratio); higher = more active; in vitro selection for triplet polymerase activity
Summary of the method: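 Both subunits of a heterodimeric triplet polymerase ribozyme were given their own mutant library, built by PCR and transcribed. Each library was annealed with a biotinylated primer, the partner subunit and triplets, incubated frozen at −7 °C, and its extended constructs gel-excised, captured on streptavidin beads and amplified by RT-PCR, all in one round done in triplicate. Fitness is the logarithm of genotype enrichment relative to wild-type enrichment, with replicates averaged by inverse-variance weighting. That logarithm is base 2, and Illumina-sequenced genotypes needed ≥10 input reads and ≥1 read per output.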

Variant	polymerase ribozyme fitness (log ratio)
C15U C102U	-3.1
C15U A95G	-1.71
C15A C49U G61A	-1.73
C15A G39A G69A U87G U112G	-4.24
C15A C20U C73A G93A	-3.83
C15U A91G A105G U112A	-3.8
C15G G25U A37U G69U G120C	-7.24
C15A C70U C114U	-5.04
C15U A83C A91G A111G	-2.96
C15G A50C	-2.38
C15U G17C A121C	-2.22
C15G U55A C70A A83U C97U U130C	-5.79
C15A C20U G48A A91U	-4.59
C15U A29U C40A A46C C123A	-5.62
C15U G69A G113C	-5.7
C15U A46C C70G	-4.3
C15U C56U G69U C102A	-5.73
C15A U116A	-4.69
C15U A43G C124A	0.00445
C15A G57A C94U	-2.78
C15G G61C A90G U96A	-6.02
C15A G69U G77U G122A C123A	-1.41
C15G G25C A41U U109A	-5.74
C15A A41U A43U G61A G113A G122A	-5.83

Variant	polymerase ribozyme fitness (log ratio)
C15U G39C A66U G69C A75U	-3.53
C15A G71U	-2.58
C15A C104U G110A	-2.85
C15G G63C A84C	-4.12
C15G C56G G57C C72G C104U U131C	-4.86
C15U G69U C102A	-1.95
C15A G60U U131A	-1.3
C15G C62G	-5
C15A C76U A83U C86A	-3.37
C15U G52A G93A A95G	-2.44
C15U G63U	-3.19
C15U A95G C114G	-4.48
C15G G17U C40U	-4.85
C15A G39A C53A U125A	-3.62
C15U C76A	-1.94
C15U C28U G44U C62U U87C U106C	-5.37
C15U G19A C89A	-5.15
C15A G71U A90U U106C A118U	-4.15
C15G G120A	-1.53
C15G C22A G52C A119G	-5.02
C15A C80U A84U	-2.49
C15U A16U G23A G63A G93C C114G	-7.78
C15U C115U	-1.42
C15U C104U G117U	-0.366

Variant	polymerase ribozyme fitness (log ratio)
C15U A43C G69A C123U C124A	-5.69
C15U G71A C79U	-1.53
C15G G61C	-2.41
C15U C40A G60C	-2.3
C15U G52A U59A A118U	-2.24
C15G A37G A66U	-5.5
C15G A27G	-4.15
C15U G47U G52C C53A C124G	-1.51
C15U A18U C34U A41G G48C U106A A111G C124G	-6.92
C15G C73U A75G G107U U109A C124G	-5.07
C15A G36A A50C G65A G69U	-7.38
C15U C22A U54A C124A	-3.89
C15U A37G C64U	-1.81
C15U G60A	-0.966
C15U A26G G63C G71A C102U U109G U112A U129A	-3.42
C15U C20A U81G U112G	-6.15
C15A C49G C98U	-3.16
C15U A43U G69U C88U A91C G120C	0.39
C15A C114U	-4.61
C15G C73A C88G	-3.31
C15G C49G U106C C124U	-2.11
C15A C70G C99A G117A C124A G128A	-6.67
C15A C53A C72G A103C G113A G117A	-6.79
C15A G35C U87A	-5.96

Variant	polymerase ribozyme fitness (log ratio)
C15A C40U U87C G93C	-3.02
C15A C40U C115U U131A	-1.85
C15G C79G	-4.93
C15A G117A	-2.72
C15U A37G C53U U116C	-2.52
C15U G52U	-2.36
C15U G51A C72G A121C	-2.34
C15G G17C	-4.24
C15U G39A	-3.08
C15U G39C	-1.93
C15U G48U A74C G77C	-2.27
C15U A74U A83C A100U U116A	-5.53
C15A U133C	-1.06
C15G C86U G110A A118U	-3.91
C15A C101G C124G	0.0121
C15G A16G C49U C56U G117U	-1.99
C15U A41U G48U	-3.71
C15A C72G	-2.3
C15G U132C	-2.23
C15U G58A C85A G113U	-5.84
C15U A91C	-2.75
C15U C73U	-1.36
C15G C40G C56A	-3.88
C15G G48U A50G G63C U106A U109C	-6.17

Variant	polymerase ribozyme fitness (log ratio)
C15A A43U C49U A91U	-3.45
C15U A27C C56G C73U C97U	-6.81
C15G C20U C73U U78G A111G	-6.71
C15A G44U	-2.85
C15U G58A	-1.84
C15A C73U	-2.31
C15A C49A C86A A95U G110A C123A	-5.76
C15U G69C	-2.64
C15A A46C	-3.02
C15G A24G C89G C124G	-6.51
C15U G36C U54C C85A G117U G127C	-5.33
C15U A43C C70A C123U C124A	-4.89
C15A G52U C94G	-3.9
C15G G77C	-2.39
C15G A29G C88G U129A	-3.95
C15A U32C	-1.58
C15U G42U U87G C88A C101U G113U	-5.85
C15G C70G	-3.8
C15A U106C	-2.44
C15A U106A	-1.94
C15A G71A A91G U112A G113C	-5.47
C15A G127A	-3.63
C15A C40A C56G	-6.31
C15U G25A	-4.87

Variant	polymerase ribozyme fitness (log ratio)
C15A A74G G113A	-4.02
C15U A16C	-2.44
C15U A18U C20U C28G G61U U87G C115U	-5
C15U C80A	-4.32
C15U C72U	-1.62
C15G C72U A100U	-3.69
C15A A84G C94U	-2.76
C15U C34G C49G G69U G120A	-3.56
C15A C64G C70A U92C G110C C115U G127U	-7.47
C15A C53A G77A C101G G120A C124A	-1.12
C15U G60A C73U U78A G135U	-1.76
C15U A18G U59A G93C C104U	-5.54
C15A U54A C56G	-3.37
C15U C99U G120C G122U	-3.71
C15U C72A C73A U81A A84G	-4.77
C15G C86U U116G	-2.95
C15A U92A U132A	-4.82
C15G C89U A90G	-2.42
C15U C62U U112G	-0.275
C15U G17A C40G C64A A90G C94A C104G G120C	-7.98
C15G U59C C86U U116G	-4.2
C15G A26U G44C G117C	-2.36
C15U G58C C72A C102G G107U A121C	-6.59
C15G C34A C70G A121C	-6.55

Variant	polymerase ribozyme fitness (log ratio)
C15A A84U	-1.41
C15G C49G C89U C115G	-4.39
C15A G45A C89G G93C	-4.59
C15G A84U	-2.56
C15U C79U	-1.97
C15A A90G G93A A103U G120U	-6.55
C15A A66G	-2.15
C15U C86U	-1.61
C15U G51U G60A	-5.07
C15U A50C	-1.84
C15U C88G A103C C115G	-6.98
C15U C70G U78A C86G G127A	-5.32
C15G A100U	-4.44
C15U A83G U87C	-2.34
C15G C40A	-3.83
C15G C40U	-2.91
C15U G44U G63C A66U G117U G128A	-6.51
C15U G17C C72A A121C	-1.65
C15A G60C U116C	-3.39
C15G C124U	-0.148
C15A A41C C72A	-2.94
C15A A74G U78G C79U G110U	-3.12
C15U C124U	0.776
